Laboratory results taken from patent US20220025021A1 (BETH ISRAEL DEACONESS MEDICAL CENTER, published 2022).

B1: MS-93 (antibody)
VH: not shown
VL: DIVLTQSPLSLSVTPGESASISCKSSHSLIHGDRNNYLAWYVQKPGRSPQLLIYLASSRASGVPDRFSGSGSDKDFTLKISRVETEDVGTYYCMQGRESPWTFGQGTKVDIKRTVAAPSVFIFPPSDEQLKSGTASVVCLLNNFYPREAKVQWKVDNALQSGNSQESVTEQDSKDSTYSLSSTLTLSKADYEKHKVYACEVTHQGLSSPVTKSFNRGEC
B2: MS-96 (antibody)
VH: not shown
VL: DIVLTQSPHSLSVTPGESASISCKSSHSLIHGDRNNYLAWYVQKPGRSPQLLIYLASSRASGVPDRFSGSGSDKDFTLKISRVEAEDVGTYYCMQGRESPWTFGQGTKVDIKRTVAAPSVFIFPPSDEQLKSGTASVVCLLNNFYPREAKVQWKVDNALQSGNSQESVTEQDSKDSTYSLSSTLTLSKADYEKHKVYACEVTHQGLSSPVTKSFNRGEC
B3: MS-99 (antibody)
VH: not shown
VL: DFVLTQSPLSLSVTPGESASISCKSSHSLIHGDRNNYLAWYVQKPGRSPQLLIYLASSRASGVPDRFSGSGSDKDFTLKISRVEAEDVGTYYCMQGRESPWTFGQGTKVDIKRTVAAPSVFIFPPSDEQLKSGTASVVCLLNNFYPREAKVQWKVDNALQSGNSQESVTEQDSKDSTYSLSSTLTLSKADYEKHKVYACEVTHQGLSSPVTKSFNRGEC
B4: MS-97 (antibody)
VH: not shown
VL: DFVLTQSPLSLSVTPGEPASISCKSSHSLIHGDRNNYLAWYVQKPGRSPQLLIYLASSRASGVPDRFSGSGSDKDFTLKISRVETEDVGTYYCMQGRESPWTFGQGTKVDIKRTVAAPSVFIFPPSDEQLKSGTASVVCLLNNFYPREAKVQWKVDNALQSGNSQESVTEQDSKDSTYSLSSTLTLSKADYEKHKVYACEVTHQGLSSPVTKSFNRGEC
B5: MS-102 (antibody)
VH: not shown
VL: DFVLTQSPHSLSVTPGESASISCKSSHSLIHGDRNNYLAWYVQKPGRSPQLLIYLASSRASGVPDRFSGSGSGKDFTLKISRVEAEDVGTYYCMQGRESPWTFGQGTKVDIKRTVAAPSVFIFPPSDEQLKSGTASVVCLLNNFYPREAKVQWKVDNALQSGNSQESVTEQDSKDSTYSLSSTLTLSKADYEKHKVYACEVTHQGLSSPVTKSFNRGEC
B6: MS-94 (antibody)
VH: not shown
VL: DIVLTQSPHSLSVTPGEPASISCKSSHSLIHGDRNNYLAWYVQKPGRSPQLLIYLASSRASGVPDRFSGSGSDKDFTLKISRVETEDVGTYYCMQGRESPWTFGQGTKVDIKRTVAAPSVFIFPPSDEQLKSGTASVVCLLNNFYPREAKVQWKVDNALQSGNSQESVTEQDSKDSTYSLSSTLTLSKADYEKHKVYACEVTHQGLSSPVTKSFNRGEC
B7: MS-100 (antibody)
VH: not shown
VL: DFVLTQSPHSLSVTPGEPASISCKSSHSLIHGDRNNYLAWYVQKPGRSPQLLIYLASSRASGVPDRFSGSGSGKDFTLKISRVETEDVGTYYCMQGRESPWTFGQGTKVDIKRTVAAPSVFIFPPSDEQLKSGTASVVCLLNNFYPREAKVQWKVDNALQSGNSQESVTEQDSKDSTYSLSSTLTLSKADYEKHKVYACEVTHQGLSSPVTKSFNRGEC
B8: MS-98 (antibody)
VH: not shown
VL: DFVLTQSPLSLSVTPGESASISCKSSHSLIHGDRNNYLAWYVQKPGRSPQLLIYLASSRASGVPDRFSGSGSGKDFTLKISRVETEDVGTYYCMQGRESPWTFGQGTKVDIKRTVAAPSVFIFPPSDEQLKSGTASVVCLLNNFYPREAKVQWKVDNALQSGNSQESVTEQDSKDSTYSLSSTLTLSKADYEKHKVYACEVTHQGLSSPVTKSFNRGEC
B9: MS-101 (antibody)
VH: not shown
VL: DFVLTQSPHSLSVTPGEPASISCKSSHSLIHGDRNNYLAWYVQKPGRSPQLLIYLASSRASGVPDRFSGSGSDKDFTLKISRVEAEDVGTYYCMQGRESPWTFGQGTKVDIKRTVAAPSVFIFPPSDEQLKSGTASVVCLLNNFYPREAKVQWKVDNALQSGNSQESVTEQDSKDSTYSLSSTLTLSKADYEKHKVYACEVTHQGLSSPVTKSFNRGEC
B10: MS-103 (antibody)
VH: not shown
VL: DIVLTQSPLSLSVTPGEPASISCKSSHSLIHGDRNNYLAWYVQKPGRSPQLLIYLASSRASGVPDRFSGSGSDKDFTLKISRVETEDVGTYYCMQGRESPWTFGQGTKVDIKRTVAAPSVFIFPPSDEQLKSGTASVVCLLNNFYPREAKVQWKVDNALQSGNSQESVTEQDSKDSTYSLSSTLTLSKADYEKHKVYACEVTHQGLSSPVTKSFNRGEC
B11: MS-104 (antibody)
VH: not shown
VL: DIVLTQSPLSLSVTPGESASISCKSSHSLIHGDRNNYLAWYVQKPGRSPQLLIYLASSRASGVPDRFSGSGSGKDFTLKISRVETEDVGTYYCMQGRESPWTFGQGTKVDIKRTVAAPSVFIFPPSDEQLKSGTASVVCLLNNFYPREAKVQWKVDNALQSGNSQESVTEQDSKDSTYSLSSTLTLSKADYEKHKVYACEVTHQGLSSPVTKSFNRGEC
B12: MS-95 (antibody)
VH: not shown
VL: DIVLTQSPHSLSVTPGESASISCKSSHSLIHGDRNNYLAWYVQKPGRSPQLLIYLASSRASGVPDRFSGSGSGKDFTLKISRVETEDVGTYYCMQGRESPWTFGQGTKVDIKRTVAAPSVFIFPPSDEQLKSGTASVVCLLNNFYPREAKVQWKVDNALQSGNSQESVTEQDSKDSTYSLSSTLTLSKADYEKHKVYACEVTHQGLSSPVTKSFNRGEC

Experiments:
Assay in all cases: cell-based or functional assay
[1] = biological target: HIV-1 pseudovirus AC10.0.29 (envelope glycoprotein) (HIV-1)
[2] = biological target: HIV-1 pseudovirus X1193_c1 (envelope glycoprotein) (HIV-1)
[3] = biological target: HIV-1 pseudovirus 6952.v1.c20 (envelope glycoprotein) (HIV-1)
[4] = biological target: HIV-1 pseudovirus 263-8 (envelope glycoprotein) (HIV-1)
[5] = biological target: HIV-1 pseudovirus SC05.8C11.2344 (envelope glycoprotein) (HIV-1)
[6] = biological target: HIV-1 pseudovirus Ce1176_A3 (envelope glycoprotein) (HIV-1)

Binder	neutralization IC50 [1] [µg/mL]	neutralization IC80 [1] [µg/mL]	neutralization IC50 [2] [µg/mL]	neutralization IC80 [2] [µg/mL]	neutralization IC50 [3] [µg/mL]	neutralization IC80 [3] [µg/mL]	neutralization IC50 [4] [µg/mL]	neutralization IC80 [4] [µg/mL]	neutralization IC50 [5] [µg/mL]	neutralization IC80 [5] [µg/mL]	neutralization IC50 [6] [µg/mL]	neutralization IC80 [6] [µg/mL]
B1	0.058	0.301	0.088	0.543	0.259	4.31	0.018	0.065	0.749	2.48	0.239	5.33
B2	0.064	0.253	0.113	0.677	0.558	8.56	0.018	0.064	1.07	3.4	0.248	5.85
B3	0.072	0.328	0.13	0.57	0.217	1.99	0.011	0.041	0.759	2.49	0.074	1.25
B4	0.057	0.282	0.101	0.588	0.147	0.917	0.015	0.052	1.02	2.63	0.125	1.59
B5	0.047	0.168	0.071	0.412	0.162	2.53	0.007	0.027	0.527	1.42	0.039	2.75
B6	0.079	0.299	0.123	0.548	0.238	3.67	0.014	0.047	0.739	2.5	0.371	11.7
B7	0.042	0.211	0.058	0.358	0.182	1.68	0.006	0.026	0.531	1.77	0.048	0.905
B8	0.067	0.245	0.088	0.369	0.109	1.6	0.009	0.033	0.59	1.9	0.102	2.36
B9	0.045	0.221	0.098	0.602	0.254	3.51	0.011	0.041	0.819	2.69	0.043	1.94
B10	0.07	0.334	0.112	0.502	0.485	5.95	0.018	0.07	0.707	2.44	0.172	3.13
B11	0.041	0.208	0.063	0.388	0.457	8.61	0.014	0.052	0.512	1.73	0.218	6.11
B12	0.076	0.27	0.111	0.467	0.229	6.26	0.013	0.047	0.702	1.79	0.203	5.38
